Laboratory results published in patent publication US9029508 (dated 2015).
“And” between values parts separate entries of the source, which are not always exact repeats. Equal values may be shown once. Read-outs that look alike come from different tables or passages of the source.

Experiments:
RON [1] = target: T1, RON (human, UniProt Q04912); assay: SPR
RON [2] = target: T1, RON; assay: ELISA
RON [3] = target: T1, RON; assay: ELISA; remark: listed apart in the source
HGF [4] = target: T2, HGF (human, UniProt P14210); assay: competition
T2 sequence (P14210 32-728): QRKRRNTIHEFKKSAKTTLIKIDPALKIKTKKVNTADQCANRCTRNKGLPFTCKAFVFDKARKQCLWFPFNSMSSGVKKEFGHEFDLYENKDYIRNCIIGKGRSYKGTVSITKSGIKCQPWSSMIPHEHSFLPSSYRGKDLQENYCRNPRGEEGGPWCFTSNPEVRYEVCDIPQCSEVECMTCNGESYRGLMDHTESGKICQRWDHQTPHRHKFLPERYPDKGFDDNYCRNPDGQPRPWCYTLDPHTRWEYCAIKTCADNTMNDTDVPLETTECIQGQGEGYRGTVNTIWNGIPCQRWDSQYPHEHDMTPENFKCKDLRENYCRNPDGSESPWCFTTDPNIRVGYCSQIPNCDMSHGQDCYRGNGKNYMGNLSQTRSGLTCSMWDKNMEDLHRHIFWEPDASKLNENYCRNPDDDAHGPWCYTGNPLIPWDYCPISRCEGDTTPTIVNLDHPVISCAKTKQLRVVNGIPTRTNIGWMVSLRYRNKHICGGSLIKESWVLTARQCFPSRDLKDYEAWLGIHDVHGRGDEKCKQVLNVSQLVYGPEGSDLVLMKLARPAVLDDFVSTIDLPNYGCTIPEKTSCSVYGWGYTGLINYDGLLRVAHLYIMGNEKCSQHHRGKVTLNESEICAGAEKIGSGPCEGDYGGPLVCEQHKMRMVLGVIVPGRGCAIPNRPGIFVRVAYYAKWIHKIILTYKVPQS

HGF [5] = target: T2, HGF; assay: ELISA
HGF [6] = target: T2, HGF; assay: SPR
HGF [7] = target: T2, HGF; assay: ELISA; remark: listed apart in the source
CD80 = target: T3, CD80 (human, UniProt P33681); assay: ELISA
T3 chain: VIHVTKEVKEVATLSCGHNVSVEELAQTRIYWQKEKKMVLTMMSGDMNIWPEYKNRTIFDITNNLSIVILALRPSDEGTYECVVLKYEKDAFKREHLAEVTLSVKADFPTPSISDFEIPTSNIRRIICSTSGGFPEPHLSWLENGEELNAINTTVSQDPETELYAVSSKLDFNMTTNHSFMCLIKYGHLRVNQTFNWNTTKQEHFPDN

CD22 = CD22 (human, UniProt P20273); assay: ELISA
NRP1 [8] = target: T4, NRP1 (human, UniProt O14786); assay: ELISA
NRP1 [9] = target: T4, NRP1; assay: SPR

B1: AB005 (antibody, V domains shown)
VH: EVQLVQSGGGLVKPGGSLRLSCAASGFTFSSYAMHWVRQAPGKGLEWVAVISYDGSNKYYADSVKGRFTISRDNSKNTLYLQMNSLRAEDTAVYYCARFSGWPNNYYYYGMDVWGQGTTVTVSS
VL: DVVMTQSPLSLPVTPGEPASISCRSSQSLLHSNGFNYVDWYLQKPGQSPHLLIYFGSYRASGVPDRFSGSGSGTDFTLKISRVEAEDVGVYYCMQALQTPPWTFGQGTKVEIRR
- Kd (RON [1]): 20.2 nM and 20.1 nM
- EC50 (RON [2]): 1.6 nM and 0.7 nM and 1.3 nM
- EC50 (RON [3]): 0.26 nM and 0.21 nM

B2: DVD045 HGF arm (antibody, V domains shown)
VH: QVQLVESGGGLVKPGGSLRLSCAASGFTFSDYYMSWIRQAPGKGLEWVSYISSSGSTIYYADSVKGRFTISRDNAKNSLYLQMNSLRAEDTAVYYCARDEYNSGWYVLFDYWGQGTLVTVSS
VL: DIQMTQSPSSVSASVGDRVTITCRASQGISSWLAWYQQKPGKAPNLLIYEASSLQSGVPSRFGGSGSGTDFTLTISSLQPEDFATYYCQQANGFPWTFGQGTKVEIKR
modifications: DVD-Ig inner
- IC50 (HGF [4]): > 100 nM
- EC50 (HGF [5]): > 100 nM
- Kd (HGF [6]): 0.901 nM
- EC50 (HGF [7]): 185 nM

B3: AB007 (antibody, V domains shown)
VH: QVQLQESGPGLVKPSETLSLTCAVSGGSISGGYGWGWIRQPPGKGLEWIGSFYSSSGNTYYNPSLKSQVTISTDTSKNQFSLKLNSMTAADTAVYYCVRDRLFSVVGMVYNNWFDVWGPGVLVTVSS
VL: ESALTQPPSVSGAPGQKVTISCTGSTSNIGGYDLHWYQQLPGTAPKLLIYDINKRPSGISDRFSGSKSGTAASLAITGLQTEDEADYYCQSYDSSLNAQVFGGGTRLTVLG
- EC50 (CD80): 0.77 nM

B4: AB008 (antibody, V domains shown)
VH: QVQLVQSGAEVKKPGSSVKVSCKASGYTFTSYWLHWVRQAPGQGLEWIGYINPRNDYTEYNQNFKDKATITADESTNTAYMELSSLRSEDTAFYFCARRDITTFYWGQGTTVTVSS
VL: DIQLTQSPSSLSASVGDRVTMSCKSSQSVLYSANHKNYLAWYQQKPGKAPKLLIYWASTRESGVPSRFSGSGSGTDFTFTISSLQPEDIATYYCHQYLSSWTFGGGTKLEIKR
- EC50 (CD22): 3.44 nM

B5: DVD049 NRP1 arm (antibody, V domains shown)
VH: EVQLVESGGGLVQPGGSLRLSCAASGFSFSSEPISWVRQAPGKGLEWVSSITGKNGYTYYADSVKGRFTISADTSKNTAYLQMNSLRAEDTAVYYCARWGKKVYGMDVWGQGTLVTVSS
VL: DIQMTQSPSSLSASVGDRVTITCRASQSISSYLAWYQQKPGKAPKLLIYGASSRASGVPSRFSGSGSGTDFTLTISSLQPEDFATYYCQQYMSVPITFGQGTKVEIKR
modifications: DVD-Ig inner
- EC50 (NRP1 [8]): 0.5 nM
- Kd (NRP1 [9]): 1.28 nM
